Here are results for two molecules from patent US20060104978A1, “Methods and compositions for PDGF-C activation and inhibition” (LUDWIG INSTITUTE FOR CANCER RESEARCH, priority 2003, published 2006).

The target of one test is T1, latent PDGF-CC (Homo sapiens, UniProt Q9NRA1).
T1 construct: cotransfected with full-length PDGF-C (Li et al, 2000), full-length PDGF-D (Bergsten et al, 2001); expressed in transfected cells; host or cells: COS-1 cells
The test can be described thus: Cotransfection assay in COS-1 cells: protease plus full-length PDGF-C. Type of test: cell-based. To be noted: α2-anti-plasmin 10 ng-1 μg added to the cotransfection medium for 24 hours. The text has this: A cotransfection assay was established to identify serine proteases able to cleave and activate latent PDGF-CC. Expression plasmids encoding the relevant enzymes and full-length PDGF-C were cotransfected into COS-1 cells, and aliquots of the conditioned media from the transfectants were subjected to SDS-PAGE and immunoblotting using antibodies to the growth factor domain of PDGF-C. […] As a specificity control, the ability of tPA and NT to use full-length PDGF-DD as the substrate in the cotransfection assay was analysed. […] One difference in the latter results, as compared with the results from the cotransfection assay, was that purified tPA generated a second intermediate species of 32 kDa using latent PDGF-CC as the substrate. It is possible that this intermediate is the result of digestion by plasmin contamination in the tPA preparation, since the size of the fragment is similar to that of plasmincleaved PDGF-CC previously reported (Li et al, 2000). […]
To test the endogenous expression of PDGF-CC, subconfluent AG1523 cells and primary fibroblast cultures were cultured in serum-free DMEM overnight. […] In the case of the primary cultures, total protein concentration was measured and normalized (Bradford, 1976). […]

The test system of another test is tPA. Nature of the test: Cotransfection assay in COS-1 cells: PDGF-CC forms and mutants coexpressed with tPA. The test is classed as cell-based, human. The settings on record: COS-1 cotransfection with tPA, immunoblot; cleavage site mutant made from mouse PDGF-C cDNA. From the text:
The structural requirements for recognition of full-length PDGF-CC as a substrate for tPA were mapped by analysis of several mutated forms of PDGF-CC using the co-transfection assay. The mutants of PDGF-CC included a chimeric form of PDGF-C carrying the CUB domain from PDGF-D and the hinge region and growth factor domain of PDGF-C (mutant PDCUBPC), and several truncation mutants lacking the CUB domain and increasing parts of the hinge region (schematically illustratrated in FIG. 6A). All mutants were properly expressed in transfected COS-1 cells, formed disulfide-linked dimers (data not shown), and were efficiently secreted, except truncation mutant Δ190 that was expressed at a lower level in the conditioned medium (FIG. 6B).
A conserved site of four amino acids containing three basic amino-acid residues (amino-acid residues -R-K-S-R-) was previously identified as a potential site for proteolytic activation of latent PDGF-CC (Li et al, 2000). […]
To test the endogenous expression of PDGF-CC, subconfluent AG1523 cells and primary fibroblast cultures were cultured in serum-free DMEM overnight. […] In the case of the primary cultures, total protein concentration was measured and normalized (Bradford, 1976). […] PDGF-C and PDGF-D were detected by immunoblotting using affinity-purified polyclonal rabbit antibodies against PDGF-C (Li et al, 2000) and PDGF-D (Bergsten et al, 2001), respectively. […]
For orientation: Immunoblotting shows a protein as a band on a membrane.

Chain of tPA (P00750 36-562): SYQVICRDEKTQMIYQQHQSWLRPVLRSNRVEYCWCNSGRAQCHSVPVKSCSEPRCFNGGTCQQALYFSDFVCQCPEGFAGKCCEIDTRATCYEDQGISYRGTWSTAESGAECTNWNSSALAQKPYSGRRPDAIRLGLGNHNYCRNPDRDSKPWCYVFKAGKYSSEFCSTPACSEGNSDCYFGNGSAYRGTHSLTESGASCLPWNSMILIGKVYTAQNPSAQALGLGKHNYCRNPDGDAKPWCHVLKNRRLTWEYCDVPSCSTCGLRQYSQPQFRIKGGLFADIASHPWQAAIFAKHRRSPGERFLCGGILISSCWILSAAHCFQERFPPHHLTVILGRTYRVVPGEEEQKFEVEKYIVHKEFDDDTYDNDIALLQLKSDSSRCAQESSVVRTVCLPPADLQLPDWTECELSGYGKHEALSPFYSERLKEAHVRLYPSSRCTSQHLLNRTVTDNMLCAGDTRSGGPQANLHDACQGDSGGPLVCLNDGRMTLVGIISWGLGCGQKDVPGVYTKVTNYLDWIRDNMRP
T1 sequence (Q9NRA1 23-345): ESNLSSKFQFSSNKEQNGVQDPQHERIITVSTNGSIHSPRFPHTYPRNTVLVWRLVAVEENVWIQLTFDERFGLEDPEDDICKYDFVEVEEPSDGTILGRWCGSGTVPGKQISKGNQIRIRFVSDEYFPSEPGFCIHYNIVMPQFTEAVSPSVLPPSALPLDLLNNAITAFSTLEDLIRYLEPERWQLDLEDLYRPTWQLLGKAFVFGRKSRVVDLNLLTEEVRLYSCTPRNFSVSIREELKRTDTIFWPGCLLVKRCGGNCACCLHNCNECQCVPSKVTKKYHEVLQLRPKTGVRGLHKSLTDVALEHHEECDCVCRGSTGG

B1: α2-anti-plasmin: specific plasmin inhibitor (#4030, American Diagnostica Inc.) (protein, UniProt P08697 40-491, looked up)
Alpha-2-antiplasmin: NQEQVSPLTLLKLGNQEPGGQTALKSPPGVCSRDPTPEQTHRLARAMMAFTADLFSLVAQTSTCPNLILSPLSVALALSHLALGAQNHTLQRLQQVLHAGSGPCLPHLLSRLCQDLGPGAFRLAARMYLQKGFPIKEDFLEQSEQLFGAKPVSLTGKQEDDLANINQWVKEATEGKIQEFLSGLPEDTVLLLLNAIHFQGFWRNKFDPSLTQRDSFHLDEQFTVPVEMMQARTYPLRWFLLEQPEIQVAHFPFKNNMSFVVLVPTHFEWNVSQVLANLSWDTLHPPLVWERPTKVRLPKLYLKHQMDLVATLSQLGLQELFQAPDLRGISEQSLVVSGVQHQSTLELSEVGVEAAAATSIAMSRMSLSSFSVNRPFLFFIFEDTTGLPLFVGSVRNPNPSAPRELKEQQDSPGNKDFLQSLKGFPRGDKLFGPDLKLVPPMEEDYPQFGSPK
For the molecule B1, the “effect on release of core PDGF-C by tPA” value with latent PDGF-CC is recorded as “had no effect on the release of core PDGF-C by tPA”.

B2: PDCUBPC: chimeric PDGF-C carrying the CUB domain from PDGF-D and the hinge region and growth factor domain of PDGF-C (protein)
chain: RDTSATPQSASIKALRNANLRRDESNHLTDLYRRDETIQVKGNGYVQSPRFPNSYPRNLLLTWRLHSQENTRIQLVFDNQFGLEEAENDICRYDFVEVEDISETSTIIRGRWCGHKEVPPRIKSRTNQIKITFKSDDYFVAKPGFKIYYSLLEDQFTEAVSPSVLPPSALPLDLLNNAITAFSTLEDLIRYLEPERWQLDLEDLYRPTWQLLGKAFVFGRKSRVVDLNLLTEEVRLYSCTPRNFSVSIREELKRTDTIFWPGCLLVKRCGGNCACCLHNCNECQCVPSKVTKKYHEVLQLRPKTGVRGLHKSLTDVALEHHEECDCVCRGSTGG
With B2, in the test on tPA, the “cleavage of the PDGF-CC form by coexpressed tPA” value is “neither chimeric PDCUBPC, nor the truncation mutants lacking the CUB domain, were efficiently cleaved”.
